# Assay results taken from patent US20030190634.
# Where two headings read alike, the source gives them in different places.
# Experiments:
# [1] = target: T1, T4 DNA ligase (Enterobacteria phage T4?) (UniProt P00970); conditions: initial ligation rate, 0.5 nM enzyme, 37 C
# T1 sequence: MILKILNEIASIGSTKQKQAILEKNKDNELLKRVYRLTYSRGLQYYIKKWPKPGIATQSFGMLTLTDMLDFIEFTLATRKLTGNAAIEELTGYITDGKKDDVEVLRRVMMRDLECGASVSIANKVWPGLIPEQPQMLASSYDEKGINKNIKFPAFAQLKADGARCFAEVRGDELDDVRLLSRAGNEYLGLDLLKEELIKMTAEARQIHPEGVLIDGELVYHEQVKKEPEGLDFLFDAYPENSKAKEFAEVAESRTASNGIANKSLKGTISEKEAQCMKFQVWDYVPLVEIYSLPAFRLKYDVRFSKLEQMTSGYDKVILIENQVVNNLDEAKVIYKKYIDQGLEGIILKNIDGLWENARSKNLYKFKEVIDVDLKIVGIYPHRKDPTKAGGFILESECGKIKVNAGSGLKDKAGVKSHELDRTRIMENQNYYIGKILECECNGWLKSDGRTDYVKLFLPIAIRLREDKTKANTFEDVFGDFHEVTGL
# [2] = target: Tth DNA ligase wild type (Thermus thermophilus) (UniProt P26996); conditions: initial ligation rate, 65 C
# Tth DNA ligase wild type (Thermus thermophilus), sequence (P26996 whole entry): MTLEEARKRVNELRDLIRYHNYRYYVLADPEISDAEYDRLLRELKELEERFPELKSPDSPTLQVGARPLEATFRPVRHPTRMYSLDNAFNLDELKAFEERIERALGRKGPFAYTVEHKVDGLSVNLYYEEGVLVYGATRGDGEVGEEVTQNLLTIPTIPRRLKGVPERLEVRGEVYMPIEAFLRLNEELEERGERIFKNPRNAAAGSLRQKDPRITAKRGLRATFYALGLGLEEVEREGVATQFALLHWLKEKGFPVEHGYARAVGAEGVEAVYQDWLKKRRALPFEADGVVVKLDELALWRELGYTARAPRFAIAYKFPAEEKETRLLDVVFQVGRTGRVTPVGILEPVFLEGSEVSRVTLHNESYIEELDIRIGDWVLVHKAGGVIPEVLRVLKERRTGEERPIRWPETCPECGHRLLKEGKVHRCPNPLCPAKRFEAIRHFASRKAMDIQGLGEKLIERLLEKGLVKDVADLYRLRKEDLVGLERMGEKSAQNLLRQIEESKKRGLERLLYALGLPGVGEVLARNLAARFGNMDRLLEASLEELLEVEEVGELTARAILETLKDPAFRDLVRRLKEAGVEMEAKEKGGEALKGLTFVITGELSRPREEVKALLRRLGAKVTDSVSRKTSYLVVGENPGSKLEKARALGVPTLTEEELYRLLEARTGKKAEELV
# [3] = target: Tth DNA ligase K294R K294R (Thermus thermophilus) (UniProt P26996); conditions: initial ligation rate, 65 C
# Tth DNA ligase K294R K294R (Thermus thermophilus), sequence (P26996 whole entry K294R): as the sequence (P26996 whole entry) above, with K294R counted along it
# [4] = target: Aquifex sp. DNA ligase (Aquifex sp.) (UniProt O66880); conditions: initial ligation rate, 65 C
# Aquifex sp. DNA ligase (Aquifex sp.), sequence (O66880 whole entry): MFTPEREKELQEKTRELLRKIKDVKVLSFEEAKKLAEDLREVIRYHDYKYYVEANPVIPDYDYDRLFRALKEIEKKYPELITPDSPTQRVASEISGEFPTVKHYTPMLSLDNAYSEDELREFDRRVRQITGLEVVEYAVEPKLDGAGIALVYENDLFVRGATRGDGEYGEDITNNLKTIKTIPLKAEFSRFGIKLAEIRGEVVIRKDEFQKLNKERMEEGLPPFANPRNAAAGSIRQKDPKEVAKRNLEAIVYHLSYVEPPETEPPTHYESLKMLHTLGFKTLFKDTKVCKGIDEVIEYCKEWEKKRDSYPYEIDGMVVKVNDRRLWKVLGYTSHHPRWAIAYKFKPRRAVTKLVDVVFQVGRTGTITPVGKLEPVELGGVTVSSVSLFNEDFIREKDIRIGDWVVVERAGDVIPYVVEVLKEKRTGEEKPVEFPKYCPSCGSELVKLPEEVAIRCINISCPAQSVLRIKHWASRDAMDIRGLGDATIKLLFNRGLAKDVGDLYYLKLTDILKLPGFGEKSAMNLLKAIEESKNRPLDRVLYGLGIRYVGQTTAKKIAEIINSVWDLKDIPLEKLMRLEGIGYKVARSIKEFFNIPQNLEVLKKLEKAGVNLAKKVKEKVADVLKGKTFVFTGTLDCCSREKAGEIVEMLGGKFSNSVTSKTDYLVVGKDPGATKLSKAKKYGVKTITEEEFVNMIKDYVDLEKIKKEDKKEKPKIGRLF
# [5] = target: Thermus sp. AK16D DNA ligase (Thermus sp. AK16D) (UniProt Q9ZFY8); conditions: initial ligation rate, 65 C
# Thermus sp. AK16D DNA ligase (Thermus sp. AK16D), sequence (Q9ZFY8 whole entry): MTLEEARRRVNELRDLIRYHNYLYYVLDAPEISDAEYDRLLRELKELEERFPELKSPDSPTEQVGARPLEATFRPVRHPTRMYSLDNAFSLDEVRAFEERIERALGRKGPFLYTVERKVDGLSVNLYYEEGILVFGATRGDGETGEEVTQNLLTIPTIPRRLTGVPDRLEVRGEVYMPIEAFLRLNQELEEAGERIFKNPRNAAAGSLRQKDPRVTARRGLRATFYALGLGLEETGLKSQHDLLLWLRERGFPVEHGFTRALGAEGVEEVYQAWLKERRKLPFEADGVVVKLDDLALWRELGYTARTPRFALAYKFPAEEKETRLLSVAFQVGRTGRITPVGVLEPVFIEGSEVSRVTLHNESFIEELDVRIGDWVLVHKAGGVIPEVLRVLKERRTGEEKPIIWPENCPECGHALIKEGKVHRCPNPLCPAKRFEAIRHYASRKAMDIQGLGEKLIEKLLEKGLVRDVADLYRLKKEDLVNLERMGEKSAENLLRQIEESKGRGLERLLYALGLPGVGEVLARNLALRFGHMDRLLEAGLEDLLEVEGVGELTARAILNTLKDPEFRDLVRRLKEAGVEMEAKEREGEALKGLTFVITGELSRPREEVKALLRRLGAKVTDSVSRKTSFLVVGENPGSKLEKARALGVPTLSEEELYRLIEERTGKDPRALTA
# [6] = 12.5 nM enzyme, NAD+, 10 mM MgCl2
substance,measurement,setting,value
"nicked duplex, T-G mismatch at penultimate 3'-end",activity (fmol/ (time unit not given)),[1]; fidelity 19,7.1
same,activity (fmol/ (time unit not given)),[2]; fidelity 190,0.29
same,activity (fmol/ (time unit not given)),[3]; fidelity 400,0.38
same,activity (fmol/ (time unit not given)),[4]; fidelity 380,0.26
same,activity (fmol/ (time unit not given)),[5]; fidelity 1100,0.12
"nicked duplex, T-G mismatch at 3'-end",activity (fmol/ (time unit not given)),[1]; fidelity 50,2.8
same,activity (fmol/ (time unit not given)),[2]; fidelity 840,0.065
same,activity (fmol/ (time unit not given)),[3]; fidelity 5300,0.029
same,activity (fmol/ (time unit not given)),[4]; fidelity 3500,0.029
same,activity (fmol/ (time unit not given)),[5]; fidelity 5200,0.025
"nicked duplex, C-G match at 3'-end",activity (fmol/ (time unit not given)),"[1]; 10 mM MgCl2, 12.5 nM substrate",140
same,activity (fmol/ (time unit not given)),"[2]; 1.25 nM enzyme as printed, NAD+, 10 mM MgCl2",55
same,activity (fmol/ (time unit not given)),[3]; [6],150
same,activity (fmol/ (time unit not given)),[4]; [6],99
same,activity (fmol/ (time unit not given)),[5]; [6],130
